Laboratory results published in FireProtDB (doi:10.1002/pro.5560070624).

B1: Ferrienterobactin receptor, P05825 (parent)
chain: MNKKIHSLALLVNLGIYGVAQAQEPTDTPVSHDDTIVVTAAEQNLQAPGVSTITADEIRKNPVARDVSKIIRTMPGVNLTGNSTSGQRGNNRQIDIRGMGPENTLILIDGKPVSSRNSVRQGWRGERDTRGDTSWVPPEMIERIEVLRGPAAARYGNGAAGGVVNIITKKGSGEWHGSWDAYFNAPEHKEEGATKRTNFSLTGPLGDEFSFRLYGNLDKTQADAWDINQGHQSARAGTYATTLPAGREGVINKDINGVVRWDFAPLQSLELEAGYSRQGNLYAGDTQNTNSDSYTRSKYGDETNRLYRQNYALTWNGGWDNGVTTSNWVQYEHTRNSRIPEGLAGGTEGKFNEKATQDFVDIDLDDVMLHSEVNLPIDFLVNQTLTLGTEWNQQRMKDLSSNTQALTGTNTGGAIDGVSTTDRSPYSKAEIFSLFAENNMELTDSTIVTPGLRFDHHSIVGNNWSPALNISQGLGDDFTLKMGIARAYKAPSLYQTNPNYILYSKGQGCYASAGGCYLQGNDDLKAETSINKEIGLEFKRDGWLAGVTWFRNDYRNKIEAGYVAVGQNAVGTDLYQWDNVPKAVVEGLEGSLNVPVSETVMWTNNITYMLKSENKTTGDRLSIIPEYTLNSTLSWQAREDLSMQTTFTWYGKQQPKKYNYKGQPAVGPETKEISPYSIVGLSATWDVTKNVSLTGGVDNLFDKRLWRAGNAQTTGDLAGANYIAGAGAYTYNEPGRTWYMSVNTHF

Variants of: B1
Settings: Escherichia coli (strain K12); pH 7; 25 °C; GdnHCl; ESR; MOPS 20 mM; structure 1FEP; whole UniProt chain shown

S276C
denaturant m value: 4.61 kcal/mol/M | denaturant midpoint (higher = more stable): 1.29 M

G274C
denaturant m value: 5.28 kcal/mol/M | denaturant midpoint (higher = more stable): 1.5 M

L266C
denaturant m value: 3.25 kcal/mol/M | denaturant midpoint (higher = more stable): 2.28 M

E270C
denaturant m value: 4.08 kcal/mol/M | denaturant midpoint (higher = more stable): 1.65 M

S268C
denaturant m value: 4.21 kcal/mol/M | denaturant midpoint (higher = more stable): 1.77 M

Q278C
denaturant m value: 1.31 kcal/mol/M | denaturant midpoint (higher = more stable): 1.91 M

E272C
denaturant m value: 5.76 kcal/mol/M | denaturant midpoint (higher = more stable): 1.57 M
